This is an account of results in paper PMC3284002 (The Journal of Cell Biology, 2012).

B2: KNL-1^1–505–6xHis Δ9 (domain or fragment)
chain: NSILKVRQAVETIEETVMNSGPSSTTTNRRVSFHNVKHVKQYDRDHGKILDATPVKEKITDTIGSDGILTPRGGNMDISESPACTSSFQVFGGGNLDKTMDMSLETTINENNETARLFETTRDPTLLYEKIVETTTKVTERIVSMPLDDTLAMFNTTNQEDKDMSVDRSVLFTIPKVPKHNATMNRTIPMDLDESKAAGGQCDETMNVFNFTNLEAAEMDTSKLDENNTMNAIRIPINSNVMPVDMDITEHHTLIEEKKNDTFGPSQLMDISAPQVQVNDTLAIFNSPRDICNKGLGVPQNLINIASNVVPVDMDITDQAVLNAEKKNDQFETSQLMDISIPKVLVNDTMAMFNSPKHVSKSSMDLEKTIEAADKSTKYPSIADEVEDLDMDMDITEQQPCEAGNQQNDGLQLQKEDLMDISVIRDSPAVNDTMAVFQSPARVKIGANNSIIDSQKSIVFGDEMSIDETQNDGTLTLPKSNVEVTTTNDVYTSLER

Series [1] deals with T1, KNL-1^1–505–6xHis, wild type (C. elegans, UniProt P34278 1-505).
T1 sequence: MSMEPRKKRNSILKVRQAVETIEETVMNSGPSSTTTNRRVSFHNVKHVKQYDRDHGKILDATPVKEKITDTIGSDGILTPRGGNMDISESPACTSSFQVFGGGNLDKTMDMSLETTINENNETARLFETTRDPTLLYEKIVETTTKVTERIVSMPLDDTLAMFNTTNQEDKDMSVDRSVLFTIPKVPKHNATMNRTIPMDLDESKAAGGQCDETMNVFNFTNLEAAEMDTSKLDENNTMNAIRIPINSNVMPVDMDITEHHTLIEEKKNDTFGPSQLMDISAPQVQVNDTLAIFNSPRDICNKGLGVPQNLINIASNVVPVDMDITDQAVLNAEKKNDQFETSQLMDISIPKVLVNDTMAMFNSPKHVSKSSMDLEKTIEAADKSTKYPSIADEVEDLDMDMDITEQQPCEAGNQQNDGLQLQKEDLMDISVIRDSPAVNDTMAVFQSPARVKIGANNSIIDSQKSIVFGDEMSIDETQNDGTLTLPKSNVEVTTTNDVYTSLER
Briefly: pull-down.

The target of the series “KNL-1^1–505–6xHis Δ9” is B2. Briefly: pull-down.
The series “SEC” concerns the molecule itself. Briefly: SEC.

B1: GST–GSP-2 (enzyme)
chain: MDVEKLNLDNIISRLLEVRGSKPGKNVQLTESEIKGLCQKSREIFLSQPILLELEAPLKICGDVHGQYYDLLRLFEYGGFPPESNYLFLGDYVDRGKQSLETICLLLAYKIKYPENFFLLRGNHECASINRIYGFYDECKRRYNIKLWKTFTDCFNCLPVAAIIDEKIFCCHGGLSPDLQSMEQIRRIMRPTDVPDQGLLCDLLWSDPDKDVTGWGENDRGVSFTFGPEVVAKFLHKHDLDLICRAHQVVEDGYEFFAKRQLVTLFSAPNYCGEFDNAGSMMTVDETLMCSFQILKPADKKKYPYGAGGVGSNRPVTPPRNAPAAQPKKGAKK
On to B1, for which the binding result (in series [1]; with KNL-1^1–505–6xHis Δ9) was “binds” in each case.
Consider B2, for which, in the series “SEC”, the binding result is “binds”.
